The target of one assay is T1, polh_human POLH (UniProt Q9Y253).
T1 sequence: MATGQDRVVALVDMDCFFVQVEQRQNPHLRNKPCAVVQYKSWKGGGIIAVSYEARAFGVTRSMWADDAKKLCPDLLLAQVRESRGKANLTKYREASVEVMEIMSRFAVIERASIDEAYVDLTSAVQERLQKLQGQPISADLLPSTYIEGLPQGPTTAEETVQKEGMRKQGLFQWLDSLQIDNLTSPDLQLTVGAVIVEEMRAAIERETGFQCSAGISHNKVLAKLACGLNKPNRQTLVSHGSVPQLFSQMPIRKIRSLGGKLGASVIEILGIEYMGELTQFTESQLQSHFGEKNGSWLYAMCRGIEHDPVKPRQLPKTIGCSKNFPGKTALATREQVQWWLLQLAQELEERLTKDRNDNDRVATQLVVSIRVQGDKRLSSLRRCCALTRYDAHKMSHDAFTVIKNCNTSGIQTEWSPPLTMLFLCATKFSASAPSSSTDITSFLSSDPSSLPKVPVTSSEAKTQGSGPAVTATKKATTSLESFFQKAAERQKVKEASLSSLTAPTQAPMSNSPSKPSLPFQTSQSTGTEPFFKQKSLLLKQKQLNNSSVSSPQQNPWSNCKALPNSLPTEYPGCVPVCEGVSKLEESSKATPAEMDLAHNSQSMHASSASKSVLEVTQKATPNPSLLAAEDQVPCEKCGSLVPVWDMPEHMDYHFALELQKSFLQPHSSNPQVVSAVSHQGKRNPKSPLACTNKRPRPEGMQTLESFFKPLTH

In the next assay the target is T2, poli_human POLI (UniProt Q9UNA4).
T2 sequence: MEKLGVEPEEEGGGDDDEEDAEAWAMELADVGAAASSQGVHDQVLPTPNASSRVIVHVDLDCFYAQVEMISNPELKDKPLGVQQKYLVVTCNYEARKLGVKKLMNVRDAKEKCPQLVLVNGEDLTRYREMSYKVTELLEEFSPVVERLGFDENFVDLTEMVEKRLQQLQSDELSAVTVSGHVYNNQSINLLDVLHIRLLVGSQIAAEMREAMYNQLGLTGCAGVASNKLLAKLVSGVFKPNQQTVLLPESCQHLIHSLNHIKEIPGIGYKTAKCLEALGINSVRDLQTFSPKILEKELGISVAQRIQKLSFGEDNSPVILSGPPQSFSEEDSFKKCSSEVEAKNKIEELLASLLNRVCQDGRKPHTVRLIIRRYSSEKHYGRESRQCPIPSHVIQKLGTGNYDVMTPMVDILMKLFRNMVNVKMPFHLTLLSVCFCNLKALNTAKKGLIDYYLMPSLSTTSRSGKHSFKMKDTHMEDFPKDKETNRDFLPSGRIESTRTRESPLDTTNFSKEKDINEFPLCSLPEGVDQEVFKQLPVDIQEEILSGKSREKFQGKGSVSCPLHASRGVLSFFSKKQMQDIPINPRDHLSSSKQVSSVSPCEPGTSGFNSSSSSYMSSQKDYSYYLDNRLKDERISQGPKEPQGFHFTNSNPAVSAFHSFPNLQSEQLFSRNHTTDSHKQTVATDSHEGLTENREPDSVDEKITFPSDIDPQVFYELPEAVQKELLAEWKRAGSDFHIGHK

In the case of “Polyubiquitin-C (Homo sapiens) (from UniProt P0CG48) G75S”, the “effect of a mutation on the interaction” value with polh_human POLH and with poli_human POLI was “disrupting interaction” each time.

Consider “Polyubiquitin-C (Homo sapiens) (from UniProt P0CG48) G76S”, for which the “effect of a mutation on the interaction” value in the assay with polh_human POLH and in the assay with poli_human POLI was “disrupting interaction” throughout.

These data come from IntAct's records for PubMed 16763556.
